Like-named read-outs stand apart in the source and are kept apart here.
Key:
[1] = tested on: affinity purified β2GPI-dependent antiphospholipid antibody; experiment: Competitive inhibition ELISA: recombinant β2GPI proteins compete for antibody binding to coated full length recombinant β2GPI; set-up: species or system human; conditions: for IC50: read-out: 50% (concentration to give 50% inhibition)
Experimental: Microtiter plates (MaxiSorp™, Nalge Nunc International, Denmark) were coated with 50 μl of full length recombinant β2GPI at 10 μg/ml in 0.1 M bicarbonate, pH 9.5, incubated overnight at 4° C., washed three times with 0.15 M PBS, pH 7.2, and blocked for one hour at room temperature with 75 μl of 2% Non-fat Dried Milk (Carnation, 2% NFDM). Test inhibitors were diluted in 2% NFDM and 25 μl of each dilution was added to coated wells. Affinity purified β2GPI-dependent antiphospholipid antibody was diluted in 2% NFDM and 25 μl, of a constant concentration, was added to the wells, including a group of wells that had no inhibitor, which acted as the positive controls. The contents of the wells were mixed and the plates were incubated at 37° C. for one hour. The plates were washed three times with PBS, 50 μl of alkaline phosphatase conjugated anti-human IgG, gamma chain specific, (Zymed #62-8422) diluted appropriately in 2% NFDM was added and incubated at 37° C. for one hour. The plates were washed three times with PBS, 50 μl of alkaline phosphatase PPMP chromogenic substrate solution was added and incubated for 30 minutes, at room temperature. The Optical Density, at 550 nm, was determined by reading the plates in a microplate autoreader (Bio-Teck Instruments, model EL3 11). The percent inhibition was determined by dividing the OD550 obtained in the presence of inhibitor by the mean OD550 obtained from the wells without inhibitor and then multiplying by 100 (more particularly, [mean A550 obtained from control wells without inhibitor less A550 of background] minus [A550 obtained in presence of inhibitor less A550 of background] divided by [mean A550 obtained from control wells without inhibitor less A550 of background] times 100).
Seven to nine different recombinant β2GPI mutant proteins were used to determine the antigenic specificity of affinity purified β2GPI-dependent antiphospholipid antibody preparations from 13 different patients. Each mutant recombinant β2GPI protein was tested, in a dose dependent fashion, for its ability to inhibit affinity purified β2GPI-dependent antiphospholipid antibody from binding to full length recombinant β2GPI. The following values were also observed for domain 1 only recombinant protein (1 - - - -; see Table 2 for designations): […]

[2] = tested on: affinity purified β2GPI-dependent antiphospholipid antibody; experiment: Direct binding ELISA, nickel chelate-coated wells charged with recombinant β2GPI proteins (no cardiolipin); set-up: species or system human; conditions: O.D. at 550 nm
Experimental: (§1) Nickel Chelate-coated microwell plates (NCP 010 00 Xenopore Corp. 374 Midland Ave. Saddle Brook, N.J. USA) were coated with 50 μl of serial dilutions of the various recombinant β2GPI, in PBS, at room temperature for 2 hours. The plates were washed three times with PBS and blocked with 75 μl of a 1% gelatin (Sigma #G-2500) in PBS for one hour room temperature. […] The plates were washed three times with PBS, 50 μl of alkaline phosphatase conjugated anti-immunoglobulin (anti-human IgG, gamma chain specific, Zymed #62-8422) or anti-rabbit IgG (Zymed #62-6122) diluted appropriately in 1% gelatin was added and incubated at 37° C. for one hour. The plates were washed three times with PBS, 50 μl of alkaline phosphatase PPMP chromogenic substrate solution was added and incubated for 30 minutes at room temperature. The optical density, at 550 nm, was determined by reading the plates in a microplate autoreader (Bio-Teck Instruments, model EL311).
(§2) Seven to nine different recombinant β2GPI mutant proteins were examined to determine if they could support the direct binding of affinity purified β2GPI-dependent antiphospholipid antibody preparations in the absence of anionic phospholipid. All recombinant mutant β2GPI were assayed with affinity purified β2GPI-dependent antiphospholipid antibody preparations from 11 different patients. Each mutant recombinant β2GPI protein was tested, in a dose dependent fashion and GST-6his was included as a negative control. The recombinant mutant β2GPI proteins were bound to nickel coated microtiter plates via their 6-his tail. All recombinant mutant β2GPI proteins tested bound rabbit anti-β2GPI showing that they were assessable by antibody (FIG. 5).

rabbit anti-β2GPI = experiment: Direct binding ELISA, nickel chelate-coated wells, rabbit antibody; conditions: O.D. at 550 nm
Experimental: as §1, §2

rabbit anti-human β2GPI = experiment: Micropanning of mutant domain 1 phage, rabbit antibody; type: binding; set-up: key: 0 (<10 colonies) to 4+ (confluent) semiquantitative colony score; conditions: Table 7B
Summary of the method: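 Phage displaying error-prone-PCR mutants of β2GPI domain 1 (aa 1-64, fused to pIII N-terminus) incubated 2 h at RT with protein G-captured rabbit β2GPI-dependent antiphospholipid antibody (2.5 μg/mL); acid-eluted bound phage infected into E. coli. Colonies spotted and scored semiquantitatively 0 to 4+; run on two occasions.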

[3] = tested on: human β2GPI-dependent antiphospholipid antibody; experiment: Micropanning of mutant domain 1 phage, patient antibodies; type: binding; conditions: Table 7B

B1: 123--: recombinant β2GPI deletion mutant with domains 1, 2, 3 (protein)
chain: GRTCPKPDDLPFSTVVPLKTFYEPGEEITYSCKPGYVSRGGMRKFICPLTGLWPINTLKCTPRVCPFAGILENGAVRYTTFEYPNTISFSCNTGFYLNGADSAKCTEEGKWSPELPVCAPIICPPPSIPTFATLRVYKPSAGNNSLYRDTAVFECLPQHAMFGNDTITCTTHGNWTKLPECGHHHHHH
[1]; Ab 6203
  Max (maximum inhibition observed at concentrations tested): 75%
  IC50: 1000 nM
[1]; Ab 6501
  Max (maximum inhibition observed at concentrations tested): 85%
  IC50: 800 nM
[1]; Ab 6509
  Max (maximum inhibition observed at concentrations tested): 90%
  IC50: 300 nM
[1]; Ab 6626
  Max (maximum inhibition observed at concentrations tested): 90%
  IC50: 800 nM
[1]; Ab 6632
  Max (maximum inhibition observed at concentrations tested): 90%
  IC50: 200 nM
[1]; Ab 6641
  Max (maximum inhibition observed at concentrations tested): 60%
  IC50: 4000 nM
[1]; Ab 6644
  Max (maximum inhibition observed at concentrations tested): 90%
  IC50: 700 nM
[1]; Ab 6652
  Max (maximum inhibition observed at concentrations tested): 95%
  IC50: 300 nM
[1]; Ab 6701
  Max (maximum inhibition observed at concentrations tested): 95%
  IC50: 300 nM
[1]; Ab 7008
  Max (maximum inhibition observed at concentrations tested): 80%
  IC50: 400 nM
[1]; Ab 7015
  Max (maximum inhibition observed at concentrations tested): 90%
  IC50: 700 nM
[1]; Ab 7101
  Max (maximum inhibition observed at concentrations tested): 70%
  IC50: 3000 nM
[1]; Ab 7104
  Max (maximum inhibition observed at concentrations tested): 98%
  IC50: 1000 nM
[2]; Ab 6203
  Maximum O.D.: 0.938
[2]; Ab 6501
  Maximum O.D.: 0.909
[2]; Ab 6626
  Maximum O.D.: 1.250
[2]; Ab 6632
  Maximum O.D.: 0.121
[2]; Ab 6641
  Maximum O.D.: 0.530
[2]; Ab 6644
  Maximum O.D.: 1.020
[2]; Ab 6652
  Maximum O.D.: 0.320
[2]; Ab 6701
  Maximum O.D.: 0.841
[2]; Ab 7008
  Maximum O.D.: 0.360
[2]; Ab 7015
  Maximum O.D.: 1.160
[2]; Ab 7101
  Maximum O.D.: 0.951
Rabbit anti-β2GPI
  Maximum O.D.: 1.971

B2: Dom5: phage displaying wild type (WT) domain 5 (protein)
chain: CKLPVKKATVVYQGERVKIQEKFKNGMLHGDKVSFFCKNKEKKCSYTEDAQCIDGTIEVPKCFKEHSSLAFWKTDASDVKPC
modifications: left off: large carriers
Rabbit anti-human β2GPI; 1st column
  Micropan score: 4
Rabbit anti-human β2GPI; 2nd column
  Micropan score: 4
Rabbit anti-human β2GPI; 3rd column
  Micropan score: 4
Rabbit anti-human β2GPI; 4th column
  Micropan score: 4
Rabbit anti-human β2GPI; 5th column
  Micropan score: 0 (0 symbolizing <10 colonies)
[3]; antibody 6226
  Micropan score: 0 (0 symbolizing <10 colonies)
[3]; antibody 6501
  Micropan score: 0 (0 symbolizing <10 colonies)
[3]; antibody 6632
  Micropan score: 0 (0 symbolizing <10 colonies)
[3]; antibody 6644
  Micropan score: 0 (0 symbolizing <10 colonies)
[3]; antibody 6701
  Micropan score: 0 (0 symbolizing <10 colonies)
[3]; antibody 7008
  Micropan score: 0 (0 symbolizing <10 colonies)

B3: 4A6: phage clone, domain 1 mutant D8G (protein)
chain: GRTCPKPGDLPFSTVVPLKTFYEPGEEITYSCKPGYVSRGGMRKFICPLTGLWPINTLKCTPRV
Rabbit anti-human β2GPI; 5th column
  Micropan score: 4
[3]; antibody 6226
  Micropan score: 2
[3]; antibody 6501
  Micropan score: 2
[3]; antibody 6632
  Micropan score: 2
[3]; antibody 6644
  Micropan score: 3
[3]; antibody 6701
  Micropan score: 2
[3]; antibody 7008
  Micropan score: 2

B4: 4G8: phage clone, domain 1 mutant P11L (protein)
chain: GRTCPKPDDLLFSTVVPLKTFYEPGEEITYSCKPGYVSRGGMRKFICPLTGLWPINTLKCTPRVAETVESCLAKLHTENSFTNVWKDDKTLDRYANYEGCLWNATGVVVCTGDETQCYGTWVPIGLAIPENEGGGSEGGGSEGGGSEGGGTKPPEYGDTPIPGYTYINPLDGTYPPGTEQNPANPNPSLEESQPLNTFMFQNNRFRNRQGALTVYTGTVTQGTDPVKTYYQYTPVSSKAMYDAYWNGKFRDCAFHSGFNEDPFVCEYQGQSSDLPQPPVNAGGGSGGGSGGGSEGGGSEGGGSEGGGSEGGGSGGGSGSGDFDYEKMANANKGAMTENADENALQSDAKGKLDSVATDYGAAIDGFIGDVSGLANGNGATGDFAGSNSQMAQVGDGDNSPLMNNFRQYLPSLPQSVECRPYVFGAGKPYEFSIDCDKINLFRGVFAFLLYVATFMYVFSTFANILRNKES
Rabbit anti-human β2GPI; 5th column
  Micropan score: 4
[3]; antibody 6226
  Micropan score: 2
[3]; antibody 6501
  Micropan score: 2
[3]; antibody 6632
  Micropan score: 2
[3]; antibody 6644
  Micropan score: 3
[3]; antibody 6701
  Micropan score: 2
[3]; antibody 7008
  Micropan score: 3

— patent US6858210B1, “Therapeutic and diagnostic domain 1 β2GPI polypeptides and methods of using same” (La Jolla Pharmaceutical Co., priority 1998, dated 2005)
